Assay results published in US7485456 (YEDA RESEARCH AND DEVELOPMENT, dated 2009).

B5: protein encoded by new clone number 10, partial NIK (NIK 624-947) (two-hybrid prey, GAL4 activation domain fusion) (enzyme, not shown: large carriers)
chain: PLTAQAIQEGLRKEPIHRVSAAELGGKVNRALQQVGGLKSPWRGEYKEPRHPPPNQANYHQTLHAQPRELSPRAPGPRPAEETTGRAPKLQPPLPPEPPEPNKSPPLTLSKEESGMWEPLPLSSLEPAPARNPSSPERKATVPEQELQQLEIELFLNSLSQPFSLEEQEQILSCLSIDSLSLSDDSEKNPSKASQSSRDTLSSGVHSWSSQAEARSSSWNMVLARGRPTDTPSYFNGVKVQIQSLNGEHLHIREFHRVKVGDIATGISSQIPAAAFSLVTKDGQPVRYDMEVPDSGIDLQCTLAPDGSFAWSWRVKHGQLENRP
notes: also called clone 10; NMPI

Key:
[1] = target: full-length NIK (NF-kB inducing kinase) (human, UniProt Q99558 1-947); experiment: yeast two-hybrid (results not shown)
[2] = target: T1, human TRAF2 in pGBT9 vector in conjunction with GAL4 DNA binding domain (two-hybrid bait) (human, UniProt P04386 1-147 (Saccharomyces cerevisiae entry)); experiment: yeast two-hybrid with TRAF2 bait, lacZ (beta-galactosidase) colour development time
T1 construct: Cloned by PCR from the first methionine to the stop codon; a short linker from the BamHI primer between GAL4 domain and TRAF2 is not spelled out; also called hTRAF2; full length TRAF2 molecule
Protocol: Positive clones picked up in the two hybrid screen were subjected to lacZ color development test in SFY526 yeast cells, following Clontech Laboratories' manual (for details see above mentioned publications and patent applications). In brief, transformants were allowed to grow at 30° C. for 2-4 days until reaching about 2 mm in diameter, then were transferred onto Whatman filters. The filters went through a freeze/thaw treatment in order to permeabilize the cells, then soaked in a buffer (16.1 mg/ml Na_2HPO_4.7H_2O; 5.5 mg/ml NaH_2PO_4.H_2O; 0.75 mg/ml KCl; 0.75 mg/ml MgSO_4.7H_2O, pH=7) containing 0.33 mg/ml X-gal and 0.35 mM β-mercaptoethanol. Colonies were monitored for development of blue color which is an indication for induction of β-galactosidase.
The screen yielded approximately 2000 clones which were able to grow on Trp-, Leu-, His-3AT plates. DNA prepared from 165 randomly selected positive clones served for transient co-transfection of SFY526 yeast strain together with TRAF2 cloned into pGBT9 vector. Assay for β-galactosidase activity was performed on the transformed SFY526 yeast colonies as described in Materials and Methods (v). The blue color that developed was an indication for yeast colonies that contain cDNA encoding a protein or polypeptide that binds to TRAF2.

[3] = target: B5; experiment: yeast two-hybrid, TRAF2 1-221 as bait
Source text: (§1) In order to narrow down the region on TRAF2 molecule which interact with clones 9, 10 and 15, two additional constructs were made. One construct comprised of the N-terminal part of the TRAF2 molecule, amino-acids 1 to 221, that included the Ring finger and the zinc finger motifs. The second construct included only the C-terminal part of the molecule, amino acids 222 to 501, covering the "TRAF-domain" and additional 42 amino acids. These two constructs were served as baits in two hybrid tests.

[4] = target: B5; experiment: yeast two-hybrid specificity test with irrelevant baits
[5] = target: B5; experiment: yeast two-hybrid, TRAF2 222-501 as bait
Source text: as §1

B1: intracellular domain of the CD40 receptor (receptor, UniProt P25942 216-277, looked up)
chain: KKVAKKPTNKAPHPKQEPQEINFPDDLPGSNTAAPVQETLHGCQPVTQEDGKESRISVQERQ
notes: domain: intracellular domain; Two-hybrid construct
B1: no binding [1].

B2: Lymphotoxin beta receptor cDNA clones picked from the human B-cell library (two-hybrid prey, GAL4 activation domain fusion) (receptor, UniProt P36941 249-435, looked up, not shown: large carriers)
chain: KSHPSLCRKLGSLLKRRPQGEGPNPVAGSWEPPKAHPYFPDLVQPLLPISGDVSPVSTGLPAAPVLEAGVPQQQSPLDLTREPQLEPGEQSQVAHGTNGIHVTGGSMTITGNIYIYNGPVLGGPPGPGDLPATPEPPYPIPEEGDPGPPGLSTPHQEDGKAWHLAETEHCGATPSNRGPRNQFITHD
For B2, the “Color test” value [2] was 10 min.

B3: TRADD (other, UniProt Q15628 1-312, looked up)
chain: MAAGQNGHEEWVGSAYLFVESSLDKVVLSDAYAHPQQKVAVYRALQAALAESGGSPDVLQMLKIHRSDPQLIVQLRFCGRQPCGRFLRAYREGALRAALQRSLAAALAQHSVPLQLELRAGAERLDALLADEERCLSCILAQQPDRLRDEELAELEDALRNLKCGSGARGGDGEVASAPLQPPVPSLSEVKPPPPPPPAQTFLFQGQPVVNRPLSLKDQQTFARSVGLKWRKVGRSLQRGCRALRDPALDSLAYEYEREGLYEQAFQLLRRFVQAEGRRATLQRLVEALEENELTSLAEDLLGLTDPNGGLA
notes: Two-hybrid construct
B3: no binding [1].

B4: construct of the N-terminal part of the TRAF2 molecule, amino-acids 1 to 221 (two-hybrid bait) (other)
chain: MAAASVTPPGSLELLQPGFSKTLLGTKLEAKYLCSACRNVLRRPFQAQCGHRYCSFCLASILSSGPQNCAACVHEGIYEEGISILESSSAFPDNAARREVESLPAVCPSDGCTWKGTLKEYESCHEGRCPLMLTECPACKGLVRLGEKERHLEHECPERSLSCRHCRAPCCGADVKAHHEVCPKFPLTCDGCGKKKIPREKFQDHVKTCGKCRVPCRFHAI
notes: Includes the Ring finger and zinc finger motifs; served as bait in two hybrid tests (fusion partner not spelled out for this construct); also called TRAF2 1-221
B4: no binding [3].

With B5 the “Color test” value [2] was 15 min.

B6: intracellular domain of the p55 TNF receptor (receptor, UniProt P19438 235-455, looked up)
chain: RYQRWKSKLYSIVCGKSTPEKEGELEGTTTKPLAPNPSFSPTPGFTPTLGFSPVPSSTFTSSSTYTPGDCPNFAAPRREVAPPYQGADPILATALASDPIPNPLQKWEDSAHKPQSLDTDDPATLYAVVENVPPLRWKEFVRRLGLSDHEIDRLELQNGRCLREAQYSMLATWRRRTPRREATLELLGRVLRDMDLLGCLEDIEEALCGPAALPPAPSLLR
notes: domain: intracellular domain; Two-hybrid construct; also called p55-IC
B6: no binding [1]; no binding [4].

B7: intracellular domain of the p75 TNF receptor (receptor, UniProt P20333 288-461, looked up)
chain: KKKPLCLQREAKVPHLPADKARGTQGPEQQHLLITAPSSSSSSLESSASALDRRAPTRNQPQAPGVEASGAGEARASTGSSDSSPGGHGTQVNVTCIVNVCSSSDHSSQCSSQASSTMGDTDSSPSESPKDEQVPFSKEECAFRSQLETPETLLGSTEEKPLPLGVPDAGMKPS
notes: domain: intracellular domain; Two-hybrid construct; also called p75-IC
B7: no binding [1]; no binding [4].

B8: TRAF2 cDNA clones picked from the human B-cell library (two-hybrid prey, GAL4 activation domain fusion) (other, not shown: large carriers)
chain: MAAASVTPPGSLELLQPGFSKTLLGTKLEAKYLCSACRNVLRRPFQAQCGHRYCSFCLASILSSGPQNCAACVHEGIYEEGISILESSSAFPDNAARREVESLPAVCPSDGCTWKGTLKEYESCHEGRCPLMLTECPACKGLVRLGEKERHLEHECPERSLSCRHCRAPCCGADVKAHHEVCPKFPLTCDGCGKKKIPREKFQDHVKTCGKCRVPCRFHAIGCLETVEGEKQQEHEVQWLREHLAMLLSSVLEAKPLLGDQSHAGSELLQRCESLEKKTATFENIVCVLNREVERVAMTAEACSRQHRLDQDKIEALSSKVQQLERSIGLKDLAMADLEQKVLEMEASTYDGVFIWKISDFARKRQEAVAGRIPAIFSPAFYTSRYGYKMCLRIYLNGDGTGRGTHLSLFFVVMKGPNDALLRWPFNQKVTLMLLDQNNREHVIDAFRPDVTSSSFQRPVNDMNIASGCPLFCPVSKMEAKNSYVRDDAIFIKAIVDLTGL
In the case of B8, the “Color test” value [2] is reported as 10 min.

B9: TRAF3 (other, UniProt Q13114 1-568, looked up)
chain: MESSKKMDSPGALQTNPPLKLHTDRSAGTPVFVPEQGGYKEKFVKTVEDKYKCEKCHLVLCSPKQTECGHRFCESCMAALLSSSSPKCTACQESIVKDKVFKDNCCKREILALQIYCRNESRGCAEQLMLGHLLVHLKNDCHFEELPCVRPDCKEKVLRKDLRDHVEKACKYREATCSHCKSQVPMIALQKHEDTDCPCVVVSCPHKCSVQTLLRSELSAHLSECVNAPSTCSFKRYGCVFQGTNQQIKAHEASSAVQHVNLLKEWSNSLEKKVSLLQNESVEKNKSIQSLHNQICSFEIEIERQKEMLRNNESKILHLQRVIDSQAEKLKELDKEIRPFRQNWEEADSMKSSVESLQNRVTELESVDKSAGQVARNTGLLESQLSRHDQMLSVHDIRLADMDLRFQVLETASYNGVLIWKIRDYKRRKQEAVMGKTLSLYSQPFYTGYFGYKMCARVYLNGDGMGKGTHLSLFFVIMRGEYDALLPWPFKQKVTLMLMDQGSSRRHLGDAFKPDPNSSSFKKPTGEMNIASGCPVFVAQTVLENGTYIKDDTIFIKVIVDTSDLPDP
notes: Two-hybrid construct
B9: no binding [1].

B10: intracellular domain of the FAS/APO1 (CD95 receptor) (receptor, UniProt P25445 191-335, looked up)
chain: KRKEVQKTCRKHRKENQGSHESPTLNPETVAINLSDVDLSKYITTIAGVMTLSQVKGFVRKNGVNEAKIDEIKNDNVQDTAEQKVQLLRNWHQLHGKKEAYDTLIKDLKKANLCTLAEKIQTIILKDITSDSENSNFRNEIQSLV
notes: as for B1
B10: no binding [1].

B11: construct of the C-terminal part of the TRAF2 molecule, amino acids 222 to 501 (two-hybrid bait) (other)
chain: GCLETVEGEKQQEHEVQWLREHLAMLLSSVLEAKPLLGDQSHAGSELLQRCESLEKKTATFENIVCVLNREVERVAMTAEACSRQHRLDQDKIEALSSKVQQLERSIGLKDLAMADLEQKVLEMEASTYDGVFIWKISDFARKRQEAVAGRIPAIFSPAFYTSRYGYKMCLRIYLNGDGTGRGTHLSLFFVVMKGPNDALLRWPFNQKVTLMLLDQNNREHVIDAFRPDVTSSSFQRPVNDMNIASGCPLFCPVSKMEAKNSYVRDDAIFIKAIVDLTGL
notes: Covers the TRAF-domain and additional 42 amino acids; served as bait in two hybrid tests (fusion partner not spelled out for this construct); also called TRAF2 222-501; C-terminal construct comprising the TRAF domain
B11: binds [5].

B12: RIP (other, UniProt Q13546 1-671, looked up)
chain: MQPDMSLNVIKMKSSDFLESAELDSGGFGKVSLCFHRTQGLMIMKTVYKGPNCIEHNEALLEEAKMMNRLRHSRVVKLLGVIIEEGKYSLVMEYMEKGNLMHVLKAEMSTPLSVKGRIILEIIEGMCYLHGKGVIHKDLKPENILVDNDFHIKIADLGLASFKMWSKLNNEEHNELREVDGTAKKNGGTLYYMAPEHLNDVNAKPTEKSDVYSFAVVLWAIFANKEPYENAICEQQLIMCIKSGNRPDVDDITEYCPREIISLMKLCWEANPEARPTFPGIEEKFRPFYLSQLEESVEEDVKSLKKEYSNENAVVKRMQSLQLDCVAVPSSRSNSATEQPGSLHSSQGLGMGPVEESWFAPSLEHPQEENEPSLQSKLQDEANYHLYGSRMDRQTKQQPRQNVAYNREEERRRRVSHDPFAQQRPYENFQNTEGKGTAYSSAASHGNAVHQPSGLTSQPQVLYQNNGLYSSHGFGTRPLDPGTAGPRVWYRPIPSHMPSLHNIPVPETNYLGNTPTMPFSSLPPTDESIKYTIYNSTGIQIGAYNYMEIGGTSSSLLDSTNTNFKEEPAAKYQAIFDNTTSLTDKHLDPIRENLGKHWKNCARKLGFTQSQIDEIDHDYERDGLKEKVYQMLQKWVMREGIKGATVGKLAQALHQCSRIDLLSSLIYVSQN
notes: Two-hybrid construct
B12: no binding [1].

B13: MORT1 (other, UniProt Q13158 1-208, looked up)
chain: MDPFLVLLHSVSSSLSSSELTELKFLCLGRVGKRKLERVQSGLDLFSMLLEQNDLEPGHTELLRELLASLRRHDLLRRVDDFEAGAAAGAAPGEEDLCAAFNVICDNVGKDWRRLARQLKVSDTKIDSIEDRYPRNLTERVRESLRIWKNTEKENATVAHLVGALRSCQMNLVADLVQEVQQARDLQNRSGAMSPMSWNSDASTSEAS
notes: Two-hybrid construct; also called FADD; MORT1/FADD
B13: no binding [1]; no binding [4].
